According to paper PMC10208975, “TCF7L2 acts as a molecular switch in midbrain to control mammal vocalization through its DNA binding domain but not transcription activation domain”:

Experiments:
Conditions in all cases: protein: recombinant; tags: MBP (pMAL-cRI); only one strand given
[1] = biological target: TCF7L2 HMG box WT (MBP fusion) (UniProt Q924A0 327-395); experiment: EMSA; dose-dependent; 50 mM NaCl, 20 mM Tris-HCl (pH not stated), 1 mM DTT, 1 mM MgCl2, 5% glycerol, 1 h at 25 C; 6% native PAGE
[2] = biological target: TCF7L2 HMG box Y337F (MBP fusion) (UniProt Q924A0 327-395, Y337F); experiment: EMSA; binding largely retained; 50 mM NaCl, 20 mM Tris-HCl (pH not stated), 1 mM DTT, 1 mM MgCl2, 5% glycerol, 1 h at 25 C; 6% native PAGE
[3] = biological target: TCF7L2 HMG box Y337S (MBP fusion) (UniProt Q924A0 327-395, Y337S); experiment: EMSA; 50 mM NaCl, 20 mM Tris-HCl (pH not stated), 1 mM DTT, 1 mM MgCl2, 5% glycerol, 1 h at 25 C; 6% native PAGE
[4] = biological target: TCF7L2 HMG box Y337H (MBP fusion) (UniProt Q924A0 327-395, Y337H); experiment: as above
[5] = biological target: TCF7L2 HMG box Y337E (MBP fusion) (UniProt Q924A0 327-395, Y337E); experiment: as above
Chain of TCF7L2 HMG box Y337E (MBP fusion) (Q924A0 327-395 Y337E): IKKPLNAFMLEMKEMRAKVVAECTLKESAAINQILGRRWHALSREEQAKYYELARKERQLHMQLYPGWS

Chain of TCF7L2 HMG box Y337S (MBP fusion) (Q924A0 327-395 Y337S): as the sequence (Q924A0 327-395 Y337E) above, with E11S counted along it
Chain of TCF7L2 HMG box Y337F (MBP fusion) (Q924A0 327-395 Y337F): as the sequence (Q924A0 327-395 Y337E) above, with E11F counted along it
Chain of TCF7L2 HMG box Y337H (MBP fusion) (Q924A0 327-395 Y337H): as the sequence (Q924A0 327-395 Y337E) above, with E11H counted along it
Chain of TCF7L2 HMG box WT (MBP fusion) (Q924A0 327-395): as the sequence (Q924A0 327-395 Y337E) above, with E11Y counted along it

B1: HMG-binding sequence probe (dsDNA)
DNA 1: TAGACGTAGGGCACCCTTTGAAGCTCTCCCTCGA
DNA 2: TCGAGGGAGAGCTTCAAAGGGTGCCCTACGTCTA
[1]
  binding result: binds
[2]
  binding result: binds
[3]
  binding result: no binding
[4]
  binding result: no binding
[5]
  binding result: no binding
